{"source": "the nanobody polyreactivity screen of Harvey et al. (2022)", "data": [{"experiment": "yeast display, Sf9 membrane polyspecificity reagent, FACS + sequencing; frameworks hold sequencing errors", "outline": "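A nanobody's polyreactivity label depends on the gate it was sorted from. Yeast display cells were stained with 10% biotinylated, detergent-solubilized Sf9 membrane reagent for 1 hour at 4 °C, enriched on streptavidin microbeads and sorted by FACS. The low and high (top ~1%) gates were set on anti-HA fluorescence for expression and streptavidin fluorescence for reagent binding.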", "values": [{"sequence": "QVHLVESGGGLVQAGGSLRLSCAASGSTFVGNAMGWNRKAPGKERELVATISNSGGRTYYADSVKGPFTISRDNAKNTVYLEMNSLKPEDTAVYYCAADHPAFGPVYSFDYWGQGTQVTVSS", "polyreactivity (PSR sort gate)": "low polyreactivity"}, {"sequence": "QVQLVESGGGLVQAGGSLRLSCAASGSIFSTYAMGWYRQAPGKERELVAAINRGTSTNYADSVKGRFTISRDNAKNTVYLQMNSLKPEDTAVYYCAAYYRGRYGPRRSEYWGQGTQVTVSS", "polyreactivity (PSR sort gate)": "high polyreactivity"}, {"sequence": "QVQLVESGGGLVQAGGSLRLSCAASGRTIRRNARGWYRQAPGKERELVAGISGSGTITYADSVKGRVTISRDNAKNTVYLQMNSLKPEDTAVYYCAARRKSFYTFYYWGQGTKVTVSS", "polyreactivity (PSR sort gate)": "high polyreactivity"}, {"sequence": "QVQLVESGGGLVQAGGSLRLSCAASGRTFRTYAMGWYRQAPGKERELVAAITSGGSTYYADSVKGRFTISRDNAKNTVYLQMNSLKPEDTAVYDCAAISTWGTKYDYWGQGTQVTVSS", "polyreactivity (PSR sort gate)": "high polyreactivity"}, {"sequence": "QVQLVESGGGLVQAGGSLRLSCAASGSIFFYYAMGWYRQAPGKERELVAAITGSGGSTYYADSVKGRFTISRDNAKNTVYLQMNSLKPEDTAVYSCAADRTVRAVYYGYGYWGQGTQVTVSS", "polyreactivity (PSR sort gate)": "low polyreactivity"}, {"sequence": "QVQLVESGGGKVKAGGSLRISCAASGRTYRYAMGWYRQAPGKERELVAAITSGGRTNYADSVKGRFTISRDNAKNTVYLQMNSLKPEDTAVYYCAAQWYTVITSWYGYWGQGTQVTVSS", "polyreactivity (PSR sort gate)": "low polyreactivity"}, {"sequence": "QVQLVESGGGLVQAGGSLRLSCAASGRIFYRYAMGWYIQAPAKERELFAAITGSGGSTYYADSVKGRFTISRDNAKNTVYFQMNSLKPEDTAVYYCNAVERSAFRGVRFDYDYWGQGTQVTLSS", "polyreactivity (PSR sort gate)": "high polyreactivity"}, {"sequence": "QVQLVESGGGLVQAGGSLRLSCAACGSTFPYNAMGWYRQAPGKERELVAAISGNGDSTFYADSVKGRFTISRDNAKNTVYLQMNSLKPEDTAVYYCAAEQYYGYYFYGYWGQGTQVTVSS", "polyreactivity (PSR sort gate)": "high polyreactivity"}, {"sequence": "QDQLVESGGGLVQAGGSLRLSCAASGSNYKYYPMGWYRTAPGKERELVAAITWGGGSTYYADSVKGRFTISRDNAKNTFYLQLNSLKPEDTAVYYCAASLFPYQYDAYFSHRKAFYYWGQGTQVTVSS", "polyreactivity (PSR sort gate)": "high polyreactivity"}, {"sequence": "QVQLVESGGGLVQAGGSLRLSCAASGFILGQYTMGWYRQAPGKERELVASINGSDGITYYADSVKGRFTISRDNAKNTVYLQMNSLKPEDTAVYYCARPPRHYTFWGRRFYYWGQGTQVTVSS", "polyreactivity (PSR sort gate)": "low polyreactivity"}, {"sequence": "QVQLVESGGGLVQAGGSLRLSCAASGRIFYSNAMGWYRQAPGKERELVAAISWSTGSTYYADSVKGRFTISRDHAKNTVYLQMNSLKPEDTAVYYCYKDDAQTRSFASTWYDYWGQGTQVTVSS", "polyreactivity (PSR sort gate)": "high polyreactivity"}, {"sequence": "QVQLVESGGGLVQAGGSLRLSCAASGITYYNAMGWYRQAAGKERELVARISWSSVSTYYADSVKGRFTISRDNAKNTVYLQMNSLKPEDTAVYYCAAEVRGSDYDYWGQGTQLTVSS", "polyreactivity (PSR sort gate)": "high polyreactivity"}, {"sequence": "QVQLVESGGGLVQAGGSLRLSCAACGGTFRSNAMGWYRQAPGKERELVAASTNYADSVKGRFTISRDNAKNTVYLQMNSLKPEDTAVYYCAAGPTDSQTGMDYWGQGTQVTVSS", "polyreactivity (PSR sort gate)": "low polyreactivity"}, {"sequence": "QVQLVESGGGLVQAGGSLRLSCAASGIIFRKNAMGWYRQAPGKERELVAAISSTGASTNYADSVKGRFTISRDNAKNTVYLQMNSLKPEDTAVYYCAASRTRYWKYDYWGQGTQVTVSS", "polyreactivity (PSR sort gate)": "high polyreactivity"}, {"sequence": "QVQLVESGGGLVPAGGSLRLSCAASGRTFFKNAMGWYRQAPGKERELVARISWNGGDSTYYADSVKGRFTISRDNAKNTVYLQMNSLKPEDTAVYSCAADTSYRPGGSRHGYGYWGQGTQVTVSS", "polyreactivity (PSR sort gate)": "low polyreactivity"}, {"sequence": "QVQLVESGGGLVQAGGSLRLSCAASGRTFGKYAMGWYRQAPGKERELVATISLSGGSTYYADSVKGRFTISRDNAKNTVYLQMNSLKPEDTAVYYCAARVYTYYYDLHKRYYWGQGTQVTVSS", "polyreactivity (PSR sort gate)": "high polyreactivity"}, {"sequence": "QVQLVESGGGLVQAGGSLRLSCAASGRIFPWYAMGWYRQAPGKEREVVAAIRWRGGGTYYADSVKGRFTISRDNAKNTVYLQMNSLKPEDTAVYYCAARRPANGMGYWGQGTQVTVSS", "polyreactivity (PSR sort gate)": "high polyreactivity"}, {"sequence": "QVQLVESGGGLVQAGGSLRLSCAASGSTFRGYAMGWYRQAPGKERELVAAITFRGGSTYYADSVKGRFTISRDNAKNTVFLQMNSLKPEDTEVYYCYVRIYGYDYWGQGTQVSVSS", "polyreactivity (PSR sort gate)": "high polyreactivity"}, {"sequence": "QVQLVESGGGLVQAGGSLRLTCAASGSTYLNYAMGWYRQAPGKERELVAAITSGGRTYYADSVKGRFTISRDNAKNTVYLQMNSLKPEDTAVYYCAKVSYRYGLYDYWGQGTQVTVSS", "polyreactivity (PSR sort gate)": "high polyreactivity"}, {"sequence": "QVQLVESGGGLVQAGGSLRLSCAASGSTFKWYTMGWYRQAPGNEREFVAAISSSGGRTYYADSVKGRFTISRDNAKNTDYLQMNCLKPEDTAVYFCAAGYLYQFRAATFGYWGQGTQVTVSS", "polyreactivity (PSR sort gate)": "high polyreactivity"}, {"sequence": "QDQLVESGGGLVQAGGSLPLSCAASGFTYSSYAMGWYRHAPGKERELVATISRSGSTTYYADSVKGRFTISRDNAKNTVYFQMNSLKPEDTAVYYCAKAYYPGGYWGQGTQVTVSS", "polyreactivity (PSR sort gate)": "high polyreactivity"}, {"sequence": "QVQLVESGGGLVQAGGSLRLSCAASGSTFPQNAMGWTRQAPGKERELVAVISRSGGNPYYADSVKGRFTISRDIAKNSVYLQMNSLKPEDTAVYYCATRVKTTYDYWGQGTQVTVSS", "polyreactivity (PSR sort gate)": "low polyreactivity"}, {"sequence": "QVQLVESRGGLVQAGCSLRLSCAASGSIFLHKAMGWYRQAPGKERELVAVITSRGGSTYYADSVKGRFTISRDNAKITVYVQMNSLNPEDPAVYYCAAPDYHKRTSRGDYWGQGTQVTVSS", "polyreactivity (PSR sort gate)": "low polyreactivity"}, {"sequence": "QVQLGESGGGLVQAGGSVRLSCAASGGTFGWYAMGWYRPAPGKERELVAAITSSGGTTFDADSVKGRFTISRDNAKNTVYLQMNSLKPEDTAVYYCAKRGQRPTRYKLGKYDYWGQGTQVTVSS", "polyreactivity (PSR sort gate)": "high polyreactivity"}, {"sequence": "QVQLVESGGGLVQAGGSLRLSCAASGYIFKRYAIGWNRQAPGKERELVAAISGNGGSTYYADSVKGRFTISRDNAKNTVYFQMNSLKPEDTAVYYCNKSGYYSPTSKGEYWGQGTQVTVSS", "polyreactivity (PSR sort gate)": "low polyreactivity"}, {"sequence": "QVQLVESGGGIVQAVGSLRLSCAASGFTLERYAMVWYRPAPGKERELVAAITQSGVSTYYADSVKGRFTISRDNAKNTVYLQMNSLKPEDTAVYYCNALRIYHHYEYDYWGQGTQVTVSS", "polyreactivity (PSR sort gate)": "high polyreactivity"}, {"sequence": "QVQLVESGGGLVQAGGSLRLSCAASGSTSRYAMGWYRQAPGKERELVAAITRSGGTTYYADSVKGRFTISRDNAKNTVYLQMNSLKPEDTAVYYCATSDRQVKYDYWGQGTQVTVSS", "polyreactivity (PSR sort gate)": "low polyreactivity"}, {"sequence": "QVQLVESGGGLVQAGGSLRLSCAASGSTFDAYAMGWYIQAPGKERELVAAITNGGSTNYADSVKGRFTISRDNAKNTVYLQMNSLQPEDTAVYYCNAQHRTVRGIFGRFNYWGQGTQVTVSS", "polyreactivity (PSR sort gate)": "low polyreactivity"}, {"sequence": "QVQLVESGGGLVQAGGSLRLSCAASGSTLYYNAMGWYRQAPGKERELVAAITSGGSTSYADSVKGRFTISRDNAKNTVSFQMYSLKPEDTAVYYCAAVFYRRFDNWGQGTQVTVSS", "polyreactivity (PSR sort gate)": "low polyreactivity"}, {"sequence": "QVQLVESGGGLVQAGGSLRLSCAASGSTFRYYAMGWYRQAPGEEREFVASISSTGTSRYYADSVKGRFTISRDNAKNTVYLQMNSLKPEDTAVYYCAARYISYYGYNHWGQGTQVTVSS", "polyreactivity (PSR sort gate)": "high polyreactivity"}, {"sequence": "QVQLVESGGGLVQAGGSLRLSCAASGYTFYKYAMGWYRQAPGKEREFVADITQSGGSTYYADSVKGRFTISRDNAKNTVYLQMNSLKPEDTAVYYCNAAYSYRPDPKGYDYWGQGTQVTVSS", "polyreactivity (PSR sort gate)": "low polyreactivity"}, {"sequence": "QVQLVESGGGIVQAGASLRLSCSASGFTQYPYTMGWNRHAPGKESELVAAITSSGATTYYADSVKGRFTISRDNAKNTVYLQMNRLKTEVTAVYYCAAGRAAAFGYLGQGTQVTVSS", "polyreactivity (PSR sort gate)": "high polyreactivity"}, {"sequence": "QVQLVESGGGLVQAGGSLRLSCAASGSIFVYYAMGWYRQAPGKDRELVAAITTSGGSTYYADSVKGRFTISRDNAKNTVYLQMNSLKPEDTAVYYCAAVLLAWYWSYSVPWAYDYWGQGTQVTVTS", "polyreactivity (PSR sort gate)": "low polyreactivity"}, {"sequence": "QVQLVESGGGLVQAGGSLRLSCAASGSTFQSYTMGWYRPAPGKERELVAAISSSGGRTYYADSVKGRFTISRDNAKHTVYLQMNSLKPEDTAVYYCAAVTQSWRGATWYDYWGQGTQVTVSS", "polyreactivity (PSR sort gate)": "high polyreactivity"}, {"sequence": "QVQLVESGGGLVQAGGSLRLSCAASGRTSRLYAMGWYRQAPGKERELVATITRSAGDTYYADSVKGRFTISRDNAKNTVYLQMNSLKPEDTAVYYCNARAAKWSRYDYWGQGTQVTVSS", "polyreactivity (PSR sort gate)": "high polyreactivity"}, {"sequence": "QVQLVESGGGLVQAGGSLRLCCAASGSTFTLYAMGWYSQAPGKVRELVAAISWSTTSTYYAHSVKGRFTISRDNAKNTVSLQMNSLKPEDTAVYYCAAELYRAEYDYWGQGTQVTVSS", "polyreactivity (PSR sort gate)": "high polyreactivity"}, {"sequence": "QVQLVESGGGLVQAGGSLRLSCAASGGIFISYAMGWYRQAPGKERELVAAITSSGGSTYYADSVKGRFTISRDNAKNTVYLQMNSLKPEVTAVYYCNTDRVPVKVSPLYESWGQGTQVTVSS", "polyreactivity (PSR sort gate)": "low polyreactivity"}, {"sequence": "QVQLVESGGGLVQAGGRLRLSCAASGSIFAGYAMGWYRQAPGKERELVAAITSSCGSTYYADSVKGRFTISRDNAKNTVYLQMNSLNPEDTAVYYCAKDKLIFYRVGSDYWGQGTQVTVSS", "polyreactivity (PSR sort gate)": "low polyreactivity"}, {"sequence": "QVQLVESGGGLVQAGGSLRLSCAASGRIFRFYAMGWYRQAPGKERELVAAISSRGGSTYYADSVKGRFTISRDNAKNTVYLQMNSLKPEDTAVYYCNAYGSTSQMDYWGQGTQVTVSS", "polyreactivity (PSR sort gate)": "high polyreactivity"}, {"sequence": "QVQLVESGGGLVQAGGSLRLSCAASGRIFPPYDMGWYRQATGKEREFVAAIDWTGGSTYYADSVKGRFTISRDNAKNTVYLQMNSLKPEDTAVYYCNAEQSYRGVGWRYDYWGQGTQVTVSS", "polyreactivity (PSR sort gate)": "low polyreactivity"}, {"sequence": "QVQLVESGGGLVQAGGSLRLSCAASGRIFWPYAMGWYRQAPGKERELVAAISWGDGTTYYADSVKGRFTISRDNAKNTVYLQMNSLKPEDTAVYYCAVELWPDYVTDIRYYDGFDYWGQGTQVTVSS", "polyreactivity (PSR sort gate)": "low polyreactivity"}]}]}
